Results on 3 molecules are retold here after publication PMC9829517.

Changes are numbered by the printed parent chain. Names and notes keep the numbering of the source.

Test [1] deals with Ndd^JamL-LipPKS1* (Moorea producens | not stated).
Test [2] concerns the target LipPKS1*.
For test [3], the target named is DEBSM6*.

As to JamC(E32T)-Cdd^JamK, in test [1], the combined titer of 7 and 8 in E. coli (maximum amount of product) was 16 mg/L; the combined titer of 7 and 8 in E. coli, against unmodified JamC/LipPKS1* came to 39 fold.

B1: JamC (E32T) (natural protein)
chain: MENLTVETQNLTSLDNGSIEEKNGPTVDEVQTWLISYLSQLLDLEIEEISTSTSFNRYGLDSSASISLTSDFGDWISKEIDPTILYSYPTIEAMAEHFGA
modifications: holo-ACP, acyl chain loaded by JamA; residue not stated
Turning to B1, in test [2], the in vitro product formation assay: formation of 7 against wild-type JamC was found to be 7 fold.

B2: JamC (E32H) (natural protein)
chain: B1 chain with T32H
modifications: holo-ACP, acyl chain loaded by JamA; residue not stated
Turning to B2, in test [3], the in vitro product formation assay: formation of 7 against wild-type JamC amounted to 2 fold.
